Test results: publication PMC6472409, “Dishevelled-3 conformation dynamics analyzed by FRET-based biosensors reveals a key role of casein kinase 1” (Nature Communications, 2019)

Columns and labels:
[1] = test system: Wnt/β-catenin pathway; assay: Dual Luciferase TopFlash/Renilla Reporter Assay; type: cell-based, human; details: Fig 8d
Experimental: Cells were transfected 24 h after seeding with 0.1 μg of Super8X TopFlash construct, 0.1 μg of Renilla luciferase construct, and 0.1 μg of corresponding plasmids per well for 6 h in a 24-well plate. As for the ECFP-DVL3 FIII wt stable cell lines, transfection was followed by 4 h induction of tetracycline (1 µg/ml) and 8 h treatment of CM:DMEM (1:1 ratio). For performing this assay, Promega Dual Luciferase assay kit (Promega, #E1910) was used according to the manufacturer’s instructions. Luminescence was measured by a Hidex Bioscan Plate Chameleon Luminometer. Results are depicted as the ratio of TopFlash and Renilla signal (TopFlash fold induction), which was normalized for each experiment to certain control column (normalized TopFlash fold induction). Data were analyzed by MS Excel 2007 and GraphPad Prism 6 and results were shown as the means ± S.D. (number of experiments indicated ad hoc).

[2] = test system: DVL3 membrane recruitment by FZD6 in HEK293 cells; assay: FZD6-dependent membrane recruitment of DVL3, immunofluorescence; type: cell-based, human; design: key to Non-recruited (DVL3 membrane recruitment): number of cells out of 100 positive cells scored; details: Fig 8c
From the text: First, we analyzed the preferred subcellular localization of DVL3 (as introduced in Fig. 2c)[10],[14]. […] Next, we investigated if DVL3 conformation correlates with the capacity of DVL3 to be recruited by FZD6, a key Wnt receptor, to the plasma membrane. For this purpose, we co-expressed FZD6 and analyzed membrane recruitment of DVL3 in FZD6-positive cells by immunofluorescence. Individual cells were categorized as: not recruited (Fig. 8b, no DVL3 in the membrane), partially recruited (clear membrane as well as cytoplasmic localization), and fully recruited (predominantly plasma membrane localization, Fig. 8c, left). […] In the last readout we analyzed the capacity of DVL3 to activate downstream Wnt/β-catenin pathway monitored by TopFlash reporter assay (Fig. 8d). […] On the other hand, under conditions that favor the open conformation both activation as well as inhibition of the Wnt/β-catenin pathway was evident.
For immunofluorescence, cells were seeded (40,000 per well) on 24-well plates with gelatin-coated coverslips and transfected, as indicated, with 0.1 μg of each corresponding plasmid (0.3 μg of mCherry-FZD6) for 6 h. For western blotting and Dual Luciferase TopFlash/Renilla Reporter Assay, cells were seeded (60,000 per well) directly on 24-well plates with 0.1 μg of each corresponding plasmid (if not indicated otherwise) for 6 h. For coimmunoprecipitation, cells were seeded (4.4 × 10^6) on 10-cm dishes and transfected with 1 μg of each corresponding plasmid. The next day after seeding, cells were transfected using polyethyleneimine (PEI) in a stoichiometry of 6 μl of PEI per 1 μg of DNA for 6 h and were harvested 24 h after transfection. The following plasmids used in HEK293 cells have been described previously: FLAG-DVL3 wt[47], CK1ϵ wt[48], mCherry-FZD6 (ref. [37]), and dominant-negative CK1ϵ P3 (ref. [33]). The ECFP-DVL3 wt plasmid was made by Gateway Technology (via LR recombination according to the manufacturer’s instructions; Thermo Fisher Scientific, #11791020) from the donor plasmid pDONR221 DVL3 (DNASU, #FLH178665.01x) and the destination plasmid pdECFP (LMBP, #4548). The HA-DVL3 wt plasmid was made by Gateway Technology from the donor plasmid pDONR221 DVL3 (DNASU, #FLH178665.01x) and the destination plasmid pcDNA3.1 N-term HA (gift from Erich Nigg).
Cells were seeded on gelatin-coated coverslips in 24-well plates and were transfected the next day. Cells were fixed 24 h later in fresh 4% paraformaldehyde, permeabilized with 0.5% Triton X-100, blocked with PBS/BSA/Triton/Azide buffer (PBTA) [3% (wt/vol) BSA, 0.25% Triton, 0.01% NaN3] for 1 h, and incubated overnight with primary antibodies (in dilution 1:500) in PBTA at 4 °C. The next day, the coverslips were washed in PBS and incubated with secondary antibodies conjugated to Alexa Fluor 488 (Invitrogen A11001) or/and Alexa Fluor 594 (Invitrogen A11058) (all in dilution 1:1000), washed with PBS [in case of samples containing FLAG-DVL3 WT and derived variants stained with DAPI (1:5000)], and all coverslips were mounted on microscopic slides. Cells were then visualized on an Olympus IX51 fluorescent microscope using ×40 air or ×100 oil objectives and/or an Olympus Fluoview 500 confocal laser scanning microscope IX71 using ×100 oil objective. One hundred positive cells per experiment (n = 3) were analyzed and scored according to their phenotype into two/three categories (punctae/even); or non-recruited/partially/fully recruited for FZD6-dependent recruitment of DVL3. The antibodies used were as follows: anti-FLAG M2 (Sigma-Aldrich, #F1804), anti-DVL3 (Santa Cruz, #sc-8027), anti-CK1ɛ (Santa Cruz, #sc-6471), anti-RFP (Chromotek, #5h9) and anti-GFP (Fitzgerald, #20R-GR-011).

B1: DVL3 S268A/S311A (protein, UniProt Q92997 1-716, looked up, variant S268A S311A)
Segment polarity protein …: MGETKIIYHLDGQETPYLVKLPLPAERVTLADFKGVLQRPSYKFFFKSMDDDFGVVKEEISDDNAKLPCFNGRVVSWLVSAEGSHPDPAPFCADNPSELPPPMERTGGIGDSRPPSFHPHAGGGSQENLDNDTETDSLVSAQRERPRRRDGPEHATRLNGTAKGERRREPGGYDSSSTLMSSELETTSFFDSDEDDSTSRFSSSTEQSSASRLMRRHKRRRRKQKVSRIERSSSFSSITDSTMSLNIITVTLNMEKYNFLGISIVGQANERGDGGIYIGSIMKGGAVAADGRIEPGDMLLQVNEINFENMANDDAVRVLREIVHKPGPITLTVAKCWDPSPRGCFTLPRSEPIRPIDPAAWVSHTAAMTGTFPAYGMSPSLSTITSTSSSITSSIPDTERLDDFHLSIHSDMAAIVKAMASPESGLEVRDRMWLKITIPNAFIGSDVVDWLYHNVEGFTDRREARKYASNLLKAGFIRHTVNKITFSEQCYYIFGDLCGNMANLSLHDHDGSSGASDQDTLAPLPHPGAAPWPMAFPYQYPPPPHPYNPHPGFPELGYSYGGGSASSQHSEGSRSSGSNRSGSDRRKEKDPKAGDSKSGGSGSESDHTTRSSLRGPRERAPSERSGPAASEHSHRSHHSLASSLRSHHTHPSYGPPGVPPLYGPPMLMMPPPPAAMGPPGAPPGRDLASVPPELTASRQSFRMAMGNPSEFFVDVM
TopFlash relative to DVL3 wt (= 1) ([1]; replicate of grid row r4): 0.2512 | TopFlash relative to DVL3 wt (= 1) ([1]; replicate of grid row r5): 0.4095 | TopFlash relative to DVL3 wt (= 1) ([1]; replicate of grid row r6): 0.2391 | TopFlash relative to DVL3 wt (= 1) ([1]; replicate of grid row r7): 0.3021 | TopFlash relative to DVL3 wt (= 1) ([1]; replicate of grid row r8): 0.4946 | TopFlash relative to DVL3 wt (= 1) ([1]; replicate of grid row r9): 0.4126 | TopFlash relative to DVL3 wt (= 1) ([1]; replicate of grid row r10): 0.6059 | TopFlash relative to DVL3 wt (= 1) ([1]; replicate of grid row r11): 0.4276 | TopFlash relative to DVL3 wt (= 1) ([1]; replicate of grid row r12): 0.421 | TopFlash relative to DVL3 wt (= 1) ([1]; replicate of grid row r13): 0.43 | TopFlash relative to DVL3 wt (= 1) ([1]; replicate of grid row r14): 0.3266 | Non-recruited (DVL3 membrane recruitment) ([2]; exp1): 79 | Partially recruited (DVL3 membrane recruitment) ([2]; exp1): 19 | Fully recruited (DVL3 membrane recruitment) ([2]; exp2): 11 | Non-recruited (DVL3 membrane recruitment) ([2]; exp2): 54 | Partially recruited (DVL3 membrane recruitment) ([2]; exp2): 35 | Fully recruited (DVL3 membrane recruitment) ([2]; exp3): 16 | Non-recruited (DVL3 membrane recruitment) ([2]; exp3): 68 | Partially recruited (DVL3 membrane recruitment) ([2]; exp3): 16

B2: DVL3 S268E/S311E (protein, UniProt Q92997 1-716, looked up, variant S268E S311E)
Segment polarity protein …: MGETKIIYHLDGQETPYLVKLPLPAERVTLADFKGVLQRPSYKFFFKSMDDDFGVVKEEISDDNAKLPCFNGRVVSWLVSAEGSHPDPAPFCADNPSELPPPMERTGGIGDSRPPSFHPHAGGGSQENLDNDTETDSLVSAQRERPRRRDGPEHATRLNGTAKGERRREPGGYDSSSTLMSSELETTSFFDSDEDDSTSRFSSSTEQSSASRLMRRHKRRRRKQKVSRIERSSSFSSITDSTMSLNIITVTLNMEKYNFLGISIVGQENERGDGGIYIGSIMKGGAVAADGRIEPGDMLLQVNEINFENMENDDAVRVLREIVHKPGPITLTVAKCWDPSPRGCFTLPRSEPIRPIDPAAWVSHTAAMTGTFPAYGMSPSLSTITSTSSSITSSIPDTERLDDFHLSIHSDMAAIVKAMASPESGLEVRDRMWLKITIPNAFIGSDVVDWLYHNVEGFTDRREARKYASNLLKAGFIRHTVNKITFSEQCYYIFGDLCGNMANLSLHDHDGSSGASDQDTLAPLPHPGAAPWPMAFPYQYPPPPHPYNPHPGFPELGYSYGGGSASSQHSEGSRSSGSNRSGSDRRKEKDPKAGDSKSGGSGSESDHTTRSSLRGPRERAPSERSGPAASEHSHRSHHSLASSLRSHHTHPSYGPPGVPPLYGPPMLMMPPPPAAMGPPGAPPGRDLASVPPELTASRQSFRMAMGNPSEFFVDVM
TopFlash relative to DVL3 wt (= 1) ([1]; replicate of grid row r4): 0.8175 | TopFlash relative to DVL3 wt (= 1) ([1]; replicate of grid row r5): 1.687 | TopFlash relative to DVL3 wt (= 1) ([1]; replicate of grid row r6): 1.081 | TopFlash relative to DVL3 wt (= 1) ([1]; replicate of grid row r7): 0.9973 | TopFlash relative to DVL3 wt (= 1) ([1]; replicate of grid row r8): 0.619 | TopFlash relative to DVL3 wt (= 1) ([1]; replicate of grid row r9): 0.5939 | TopFlash relative to DVL3 wt (= 1) ([1]; replicate of grid row r10): 0.8497 | TopFlash relative to DVL3 wt (= 1) ([1]; replicate of grid row r11): 1.052 | TopFlash relative to DVL3 wt (= 1) ([1]; replicate of grid row r12): 1.009 | TopFlash relative to DVL3 wt (= 1) ([1]; replicate of grid row r13): 1.108 | TopFlash relative to DVL3 wt (= 1) ([1]; replicate of grid row r14): 1.265 | Fully recruited (DVL3 membrane recruitment) ([2]; exp1): 11 | Non-recruited (DVL3 membrane recruitment) ([2]; exp1): 52 | Partially recruited (DVL3 membrane recruitment) ([2]; exp1): 37 | Fully recruited (DVL3 membrane recruitment) ([2]; exp2): 20 | Non-recruited (DVL3 membrane recruitment) ([2]; exp2): 49 | Partially recruited (DVL3 membrane recruitment) ([2]; exp2): 31 | Fully recruited (DVL3 membrane recruitment) ([2]; exp3): 10 | Non-recruited (DVL3 membrane recruitment) ([2]; exp3): 60 | Partially recruited (DVL3 membrane recruitment) ([2]; exp3): 30
